# According to the supplement of paper PMC10567573:
# B1: OAS1 (parent)
# chain: YIGTHEYPHFSHRPSTLQAASTPQ
# Variants of: B1
# Assay: protein stability index of a GFP-peptide fusion (GPS, HEK-293T) (PSI 1-6); higher = more stable
# Conditions: c terminus: a fixed tail appended
# 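Further: lentivirally expressed fusions sorted by FACS into six bins by GFP to DsRed ratio, PSI derived from sequencing read proportions per bin multiplied by bin number.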
row,Variant,protein stability index
1,YIGTHEYPHFSHRPSTLQAASTWQ [P23W],1.97
2,YIGTHEYPHFSHRPSTLQAASTEQ [P23E],2.37
3,YIGTHEYPHFSHRPSTLQAASTVQ [P23V],1.81
4,YIGTHEYPHFSHRPSTLQAASTFQ [P23F],1.72
5,YIGTHEYPHFSHRPSTLQAASTHQ [P23H],2.4
6,YIGTHEYPHFSHRPSTLQAASTAQ [P23A],2.14
7,YIGTHEYPHFSHRPSTLQAASTNQ [P23N],2.54
8,YIGTHEYPHFSHRPSTLQAASTGQ [P23G],1.53
9,YIGTHEYPHFSHRPSTLQAASTCQ [P23C],1.88
10,YIGTHEYPHFSHRPSTLQAASTMQ [P23M],1.89
11,YIGTHEYPHFSHRPSTLQAASTYQ [P23Y],1.75
12,YIGTHEYPHFSHRPSTLQAASTDQ [P23D],2.15
13,YIGTHEYPHFSHRPSTLQAASTRQ [P23R],1.86
14,YIGTHEYPHFSHRPSTLQAASTSQ [P23S],2.27
15,YIGTHEYPHFSHRPSTLQAASTIQ [P23I],2.74
16,YIGTHEYPHFSHRPSTLQAASTTQ [P23T],2.48
17,YIGTHEYPHFSHRPSTLQAASTLQ [P23L],1.73
18,YIGTHEYPHFSHRPSTLQAASTQQ [P23Q],2.23
19,YIGTHEYPHFSHRPSTLQAASTKQ [P23K],1.91
20,YIGTHEYPHFSHRPSTNQAASTPQ [L17N],2.42
21,YIGTHEYPHFSHRPSTSQAASTPQ [L17S],2.12
22,YIGTHEYPHFSHRPSTGQAASTPQ [L17G],2.17
23,YIGTHEYPHFSHRPSTCQAASTPQ [L17C],2.14
24,YIGTHEYPHFSHRPSTIQAASTPQ [L17I],1.9

row,Variant,protein stability index
1,YIGTHEYPHFSHRPSTMQAASTPQ [L17M],2.24
2,YIGTHEYPHFSHRPSTVQAASTPQ [L17V],2.3
3,YIGTHEYPHFSHRPSTHQAASTPQ [L17H],1.93
4,YIGTHEYPHFSHRPSTKQAASTPQ [L17K],1.79
5,YIGTHEYPHFSHRPSTWQAASTPQ [L17W],2.01
6,YIGTHEYPHFSHRPSTAQAASTPQ [L17A],1.84
7,YIGTHEYPHFSHRPSTQQAASTPQ [L17Q],2.29
8,YIGTHEYPHFSHRPSTEQAASTPQ [L17E],2.06
9,YIGTHEYPHFSHRPSTTQAASTPQ [L17T],1.98
10,YIGTHEYPHFSHRPSTRQAASTPQ [L17R],2
11,YIGTHEYPHFSHRPSTYQAASTPQ [L17Y],2.14
12,YIGTHEYPHFSHRPSTDQAASTPQ [L17D],2.41
13,YIGTHEYPHFSHRPSTFQAASTPQ [L17F],1.83
14,YIGTHEYPHFSHRPSTPQAASTPQ [L17P],2.5
15,YIGTHEYPHFSHRPSTLQAASTPD [Q24D],2.06
16,YIGTHEYPHFSHRPSTLQAASTPA [Q24A],1.66
17,YIGTHEYPHFSHRPSTLQAASTPI [Q24I],1.92
18,YIGTHEYPHFSHRPSTLQAASTPL [Q24L],2.29
19,YIGTHEYPHFSHRPSTLQAASTPK [Q24K],1.81
20,YIGTHEYPHFSHRPSTLQAASTPE [Q24E],2.25
21,YIGTHEYPHFSHRPSTLQAASTPH [Q24H],2.15
22,YIGTHEYPHFSHRPSTLQAASTPF [Q24F],1.77
23,YIGTHEYPHFSHRPSTLQAASTPG [Q24G],2.2
24,YIGTHEYPHFSHRPSTLQAASTPN [Q24N],2.07

row,Variant,protein stability index
1,YIGTHEYPHFSHRPSTLQAASTPW [Q24W],2.25
2,YIGTHEYPHFSHRPSTLQAASTPC [Q24C],1.69
3,YIGTHEYPHFSHRPSTLQAASTPM [Q24M],1.87
4,YIGTHEYPHFSHRPSTLQAASTPR [Q24R],1.86
5,YIGTHEYPHFSHRPSTLQAASTPV [Q24V],2.2
6,YIGTHEYPHFSHRPSTLQAASTPY [Q24Y],2.4
7,YIGTHEYPHFSHRPSTLQAASTPT [Q24T],2.04
8,YIGTHEYPHFSHRPSTLQAASTPS [Q24S],1.94
9,YIGTHEYPHFSHRPSTLQAAETPQ [S21E],2.24
10,YIGTHEYPHFSHRPSTLQAALTPQ [S21L],1.53
11,YIGTHEYPHFSHRPSTLQAAMTPQ [S21M],1.94
12,YIGTHEYPHFSHRPSTLQAADTPQ [S21D],1.89
13,YIGTHEYPHFSHRPSTLQAAWTPQ [S21W],2.42
14,YIGTHEYPHFSHRPSTLQAAFTPQ [S21F],1.68
15,YIGTHEYPHFSHRPSTLQAAATPQ [S21A],2.1
16,YIGTHEYPHFSHRPSTLQAAGTPQ [S21G],2.23
17,YIGTHEYPHFSHRPSTLQAAHTPQ [S21H],2
18,YIGTHEYPHFSHRPSTLQAAQTPQ [S21Q],2
19,YIGTHEYPHFSHRPSTLQAAVTPQ [S21V],1.89
20,YIGTHEYPHFSHRPSTLQAATTPQ [S21T],2.07
21,YIGTHEYPHFSHRPSTLQAAITPQ [S21I],1.97
22,YIGTHEYPHFSHRPSTLQAACTPQ [S21C],2.77
23,YIGTHEYPHFSHRPSTLQAANTPQ [S21N],1.85
24,YIGTHEYPHFSHRPSTLQAARTPQ [S21R],2

row,Variant,protein stability index
1,YIGTHEYPHFSHRPSTLQAAYTPQ [S21Y],1.95
2,YIGTHEYPHFSHRPSTLQAAPTPQ [S21P],1.67
3,YIGTHEYPHFSHRPSTLQAAKTPQ [S21K],1.81
4,YIGTHEYPHFSHRPSTLQAYSTPQ [A20Y],1.89
5,YIGTHEYPHFSHRPSTLQAVSTPQ [A20V],1.79
6,YIGTHEYPHFSHRPSTLQADSTPQ [A20D],1.75
7,YIGTHEYPHFSHRPSTLQAKSTPQ [A20K],2.17
8,YIGTHEYPHFSHRPSTLQASSTPQ [A20S],2.11
9,YIGTHEYPHFSHRPSTLQAISTPQ [A20I],2.19
10,YIGTHEYPHFSHRPSTLQAESTPQ [A20E],2.56
11,YIGTHEYPHFSHRPSTLQAFSTPQ [A20F],1.73
12,YIGTHEYPHFSHRPSTLQACSTPQ [A20C],1.84
13,YIGTHEYPHFSHRPSTLQALSTPQ [A20L],2.39
14,YIGTHEYPHFSHRPSTLQAQSTPQ [A20Q],1.93
15,YIGTHEYPHFSHRPSTLQAHSTPQ [A20H],1.64
16,YIGTHEYPHFSHRPSTLQATSTPQ [A20T],2.04
17,YIGTHEYPHFSHRPSTLQARSTPQ [A20R],1.82
18,YIGTHEYPHFSHRPSTLQAMSTPQ [A20M],1.93
19,YIGTHEYPHFSHRPSTLQAGSTPQ [A20G],1.88
20,YIGTHEYPHFSHRPSTLQAWSTPQ [A20W],2.43
21,YIGTHEYPHFSHRPSTLQANSTPQ [A20N],2.08
22,YIGTHEYPHFSHRPSTLQAPSTPQ [A20P],1.97
